Measurements taken from US10273490B2, “Erythritol production in cyanobacteria” (Photanol B.V., priority 2014, dated 2019).
Like-named read-outs stand apart in the source and are kept apart here.

What was measured:
Synechocystis PCC6803 = test: Toxicity assay for erythritol: resistance of Synechocystis PCC6803, growth rate; format: cell-based; conditions: BG-11, pH 8.0, low light ~40 μE, 30° C.
Procedure: FIG. 4. Toxicity assay for erythritol. Synechocystis PCC6803 was inoculated in 10 ml BG-11 supplemented with 10 mM TES-buffer-NaOH (pH=8.0) and with 10 μg/ml kanamycine at an OD of 0.2. The culture was incubated at low light intensity (˜40 μE), 30° C. and shaking at 120 rpm. It was clearly shown (FIG. 4) that up to a concentration of 10 gr/L erythritol, cultures are not affected with respect to growth-rate.

[1] = substrate D-erythrose; cited from earlier work
[2] = co-factor NADPH; cited from earlier work
[3] = substrate D-erythrose-4-P; cited from earlier work

For `OC[C@@H](O)[C@@H](O)CO` [erythritol], the “erythritol concentration up to which cultures are not affected with respect to growth-rate” value (Synechocystis PCC6803) was no more than 10 gr/L.

B1: GLD1: reductase from Hypocrea jecorina (Trichoderma reesei), SEQ ID NO: 11, 12 (protein, listed as Hypocrea jecorina)
chain: MSSGRTVTLNTGYKIPQIGYGTWQAAPGEVGAGVFEALKVGYRHLDLAKVYGNQKEVGEGIKKALAEVPGLKREDIFITSKLWNNSHKPEDVEPALDDTLAELGLDYLDLYLIHWPVAFAPGADLFPKSEDGSEVQLNQNVSIVQTWKAMTELPKSKVRSVGVSNFTIEHLDAVIEATGVVPAVNQIERHPRLPNQPLIDYCAKKGIIITAYSAFGNNTKGLPLLVSSDEVKAVADNLSKKQGKTVTPAQVILAWSQIGGHTVIPKSVTKARIAENFQEVELDDEAIAALNKLGEKPQRFNIPYTYKPRWNINLFNTEEEKAAAHTAVIKL
For B1, the Km [1] is given as 16 to 134 µM.

B2: ErCm: reductase from Candida magnolia JH110, SEQ ID NO: 9, 10 (protein, listed as Candida magnoliae)
chain: MSSTYTLTRLSAPSMVLNSGSQIPAVGYGLWKQQGSEAKDSVRCAIESGYRHLDCATAYQNHKEVGQAIREAGVPRDELWITSKVWGTHFDNPEEGLDDILEELGVEYLDLLLLHLPVAFKRNPEDPKQLRGLPVDHDMKYADVWARMEKLPKSKVRNIGVSNLTVRALDELLQTAKVTPAVNQVEMHPNLPQKKLLDYCKSKGIVVQAYSPLAQGQHENPVVTDIADDLGVSPAQVVLSWGALRGTNILPKSSTPSRIRENLELIQLSDDHMRRIDALARR
In the case of B2, the “D-erythrose Kcat” value [1] is listed as 7.6 s⁻¹, the Km [1] is listed as 8500 µM and the Km [2] is listed as 16 µM. The “NADPH Kcat” value [2] was 48 s⁻¹.

B3: ALR1: reductase from Aspergillus niger, SEQ ID NO: 13, 14 (protein)
chain: MSLGKKVTLNSGAQIPQLGFGTWQSAPGQVGDAVYEALKAGYRHLDLATIYQNQREVAEGIKRAYKDVPGLKREDIFITSKLWNSQHDPAVVEKALDECLAELELDYLDLYLVHWPVSFTTGSELFPLVKDSSVEGGDVVINDDISIVDTWKAMTQLPKSKARTVGVSNHMIPHLEAIINATGVVPAVNQIERHPVLQSNELIEYCQKKGIHVTAYSAFGNNGFGVPLLVTRPEVKEVAESASKRLGTTVTPAQVILAWSQVGGHSVIPKSVTPSRIHENFKEVELTPEEIAKVSELGKDRRRYNTPYVANTPRWDIDIFGEEEEKPAGHKVIV
modifications: Aspergillus niger
In the case of B3, the “D-erythrose Kcat” value [1] is given as 25 s⁻¹ and the Km [1] is given as 139 µM.

B4: TM1254: phosphatase from Thermotoga maritima MSB8, SEQ ID NO: 5, 6 (protein, listed as Thermotoga maritima)
chain: MEAVIFDMDGVLMDTEPLYFEAYRRVAESYGKPYTEDLHRRIMGVPEREGLPILMEALEIKDSLENFKKRVHEEKKRVFSELLKENPGVREALEFVKSKRIKLALATSTPQREALERLRRLDLEKYFDVMVFGDQVKNGKPDPEIYLLVLERLNVVPEKVVVFEDSKSGVEAAKSAGIERIYGVVHSLNDGKALLEAGAVALVKPEEILNVLKEVL
In the case of B4, the “D-erythrose-4-P Vmax” value [3] is listed as 2.63 umol/min/mg protein and the Km [3] is listed as 152 µM.

B5: Gcy1p: erythrose reductase from Saccharomyces cerevisiae, SEQ ID NO: 7, 8 (protein, listed as Saccharomyces cerevisiae)
chain: MPATLHDSTKILSLNTGAQIPQIGLGTWQSKENDAYKAVLTALKDGYRHIDTAAIYRNEDQVGQAIKDSGVPREEIFVTTKLWCTQHHEPEVALDQSLKRLGLDYVDLYLMHWPARLDPAYIKNEDILSVPTKKDGSRAVDITNWNFIKTWELMQELPKTGKTKAVGVSNFSINNLKDLLASQGNKLTPAANQVEIHPLLPQDELINFCKSKGIVVEAYSPLGSTDAPLLKEPVILEIAKKNNVQPGHVVISWHVQRGYVVLPKSVNPDRIKTNRKIFTLSTEDFEAINNISKEKGEKRVVHPNWSPFEVFK
For B5, the Km [1] is given as 3400 µM.

B6: YidA: phosphatase from Escherichia coli, SEQ ID NO: 1, 2 (protein, listed as Escherichia coli)
chain: MAIKLIAIDMDGTLLLPDHTISPAVKNAIAAARARGVNVVLTTGRPYAGVHNYLKELHMEQPGDYCITYNGALVQKAADGSTVAQTALSYDDYRFLEKLSREVGSHFHALDRTTLYTANRDISYYTVHESFVATIPLVFCEAEKMDPNTQFLKVMMIDEPAILDQAIARIPQEVKEKYTVLKSAPYFLEILDKRVNKGTGVKSLADVLGIKPEEIMAIGDQENDIAMIEYAGVGVAMDNAIPSVKEVANFVTKSNLEDGVAFAIEKYVLN
For B6, the “D-erythrose-4-P Kcat” value [3] is listed as 19 s⁻¹ and the Km [3] is listed as 19 µM.
